The values that follow come from PMC6249601.

This experiment deals with EBOV GP.10xhis. As to the kind of experiment: SPR. Particulars: for increase in kd values at pH 5.0: second pH 7.4.

Take REGN3470: the “increase in kd values at pH 5.0” value is “less than 2-fold”. Where the note is “pH 5.0”, this substance returned a koff of 0.000491 s⁻¹ and a t 1/2 (min) of 23.5 min. For the setting “pH 6.0”, this substance had a koff of 0.000367 s⁻¹ and a t 1/2 (min) of 31.4 min. Also, for the setting “pH 7.4”, the koff worked out at 0.000432 s⁻¹ and the t 1/2 (min) is 26.7 min.

On to REGN3471, for which the “increase in kd values at pH 5.0” value is recorded as “less than 2-fold”. Moreover, under “pH 5.0”, the koff came out at 0.000332 s⁻¹ and the t 1/2 (min) turned out to be 34.8 min. For the setting “pH 6.0”, this substance returned a koff of 0.000221 s⁻¹ and a t 1/2 (min) of 52.3 min. Also, where the note is “pH 7.4”, the koff is 0.000195 s⁻¹ and the t 1/2 (min) is 59.1 min.

REGN3479: the “increase in kd values at pH 5.0” value is on record as 3-fold. For the setting “pH 5.0”, this substance returned a koff of 0.000202 s⁻¹ and a t 1/2 (min) of 57.3 min. For the setting “pH 6.0”, this substance gave a koff of 0.000214 s⁻¹ and a t 1/2 (min) of 55.1 min. In addition, for the setting “pH 7.4”, the koff worked out at 7.83e-05 s⁻¹ and the t 1/2 (min) amounted to 148 min.

The term koff denotes a measure of how fast the partners let go of each other.
